According to the supplement of paper PMC10598134:
± gives the standard deviation.

Experiment: collision cross section of modified peptide (TIMS, N2, iRT-aligned); higher = larger / more extended gas-phase ion
In short: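 Collision cross section values rest on the Mason-Schamp equation applied to calibrated, run-aligned mobility data from synthetic peptides. Mobility (1/K0) was calibrated with three reference ions and aligned per run to the median iRT peptide deviation, and 1–3 technical replicates of the most abundant feature per charge state were averaged. Data came from a timsTOF Pro/HT in dda-PASEF mode (nitrogen, ~2.4 mbar) after a 120-min nanoflow C18 gradient at 60 °C.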

[1] = charge state: 2, modification: Butyryl
[2] = charge state: 3, modification: Butyryl
[3] = charge state: 2, modification: Acetyl (K)
[4] = charge state: 2, modification: Biotin
[5] = charge state: 3, modification: Biotin
[6] = charge state: 2, modification: Methyl (R)
[7] = charge state: 3, modification: Methyl (R)
[8] = charge state: 2, modification: Dimethyl (K)
[9] = charge state: 3, modification: Dimethyl (K)
[10] = charge state: 2, modification: Succinyl
[11] = charge state: 3, modification: Succinyl
[12] = charge state: 2, modification: Glutarylation
[13] = charge state: 3, modification: Glutarylation
[14] = charge state: 2, modification: HexNAc (ST)
[15] = charge state: 3, modification: HexNAc (ST)
[16] = charge state: 2, modification: Hydroxyproline
[17] = charge state: 2, modification: GlyGly (K)
[18] = charge state: 3, modification: GlyGly (K)
[19] = charge state: 2, modification: Crotonyl
[20] = charge state: 3, modification: Crotonyl
[21] = charge state: 3, modification: Hydroxyproline
[22] = charge state: 2, modification: Methyl (K)
[23] = charge state: 3, modification: Methyl (K)
[24] = charge state: 2, modification: Phospho (Y)
[25] = charge state: 2, modification: Propionyl
[26] = charge state: 3, modification: Propionyl
[27] = charge state: 2, modification: Formyl
[28] = charge state: 3, modification: Formyl
[29] = charge state: 2, modification: hydroxyisobutyryl
[30] = charge state: 3, modification: hydroxyisobutyryl

FGTINIVHPKLGSYTK [_FGTINIVHPK(Butyryl)LGSYTK_]
collision cross section [1]: 477.38 ± 1.1 Å² | collision cross section [2]: 553.18 ± 2.9 Å²

IINEPTAAAIAYGLDKK [_IINEPTAAAIAYGLDK(Acetyl (K))K_]
collision cross section [3]: 458.66 ± 2.6 Å² | collision cross section (charge state: 3, modification: Acetyl (K)): 554.46 ± 1.6 Å²

GTITVSAQELKDNR [_GTITVSAQELK(Biotin)DNR_]
collision cross section [4]: 437.8 ± 0.23 Å² | collision cross section [5]: 500.75 Å²

AVPSSPAGSAARGR [_AVPSSPAGSAAR(Methyl (R))GR_]
collision cross section [6]: 387.69 ± 1.4 Å² | collision cross section [7]: 492.48 ± 1.5 Å²

GFALVGVGSEASSKK [_GFALVGVGSEASSK(Butyryl)K_]
collision cross section [1]: 447.9 ± 0.87 Å² | collision cross section [2]: 499.86 ± 2.6 Å²

SPSDSGYSYETIGKTTK [_SPSDSGYSYETIGK(Dimethyl (K))TTK_]
collision cross section [8]: 470.19 ± 1.3 Å² | collision cross section [9]: 515.36 ± 1.6 Å²

SNEEGSEEKGPEVR [_SNEEGSEEK(Butyryl)GPEVR_]
collision cross section [1]: 407.11 ± 0.23 Å² | collision cross section [2]: 490.17 Å²

LLFSNTAAQKLR [_LLFSNTAAQK(Dimethyl (K))LR_]
collision cross section [8]: 419.08 ± 0.75 Å² | collision cross section [9]: 473.77 ± 2.6 Å²

GSLEKGSPEDK [_GSLEK(Acetyl (K))GSPEDK_]
collision cross section [3]: 363.99 ± 0.16 Å²

LEEVTGKLQVAR [_LEEVTGK(Butyryl)LQVAR_]
collision cross section [1]: 398.95 ± 0.23 Å² | collision cross section [2]: 467.68 Å²

IQQELQTAKK [_IQQELQTAK(Succinyl)K_]
collision cross section [10]: 376.48 ± 0.24 Å² | collision cross section [11]: 438.22 Å²

VNVEAPDVNLEGLGGKLK [_VNVEAPDVNLEGLGGK(Gluratylation)LK_]
collision cross section [12]: 464.05 ± 2.1 Å² | collision cross section [13]: 550.01 Å²

VETTVTSLKTK [_VETTVTSLK(Gluratylation)TK_]
collision cross section [12]: 392.12 ± 0.61 Å²

KVTLSVLSR [_KVT(HexNAc (ST))LSVLSR_]
collision cross section [14]: 375.11 ± 0.13 Å² | collision cross section [15]: 463.47 ± 1 Å²

DTPTSAGPNSFNKGK [_DTPTSAGPNSFNK(Trimethyl (K))GK_]
collision cross section (charge state: 2, modification: Trimethyl (K)): 411.65 ± 1.2 Å² | collision cross section (charge state: 3, modification: Trimethyl (K)): 457.6 ± 1.8 Å²

GDAGEPGRPGSPGK [_GDAGEPGRPGSP(Hydroxyproline)GK_]
collision cross section [16]: 357.84 ± 0.8 Å²

SGKFTQQDIDEAK [_SGK(GlyGly (K))FTQQDIDEAK_]
collision cross section [17]: 414.34 ± 1.9 Å² | collision cross section [18]: 476.61 ± 1.1 Å²

AGQKLIDVNHYAK [_AGQK(Crotonyl)LIDVNHYAK_]
collision cross section [19]: 434.02 ± 0.33 Å² | collision cross section [20]: 485.3 ± 1.3 Å²

GQKGEPGLPGHPGK [_GQKGEPGLP(Hydroxyproline)GHPGK_]
collision cross section [16]: 379.44 ± 1.1 Å² | collision cross section [21]: 420.23 ± 0.34 Å²

SKHLQEQLNELK [_SK(Methyl (K))HLQEQLNELK_]
collision cross section [22]: 411.32 ± 1.9 Å² | collision cross section [23]: 492.52 ± 1.8 Å²

DLGKFQVATDALK [_DLGK(GlyGly (K))FQVATDALK_]
collision cross section [17]: 422.76 ± 0.97 Å² | collision cross section [18]: 498.2 ± 1.1 Å²

RLPNVHGR [_R(Methyl (R))LPNVHGR_]
collision cross section [6]: 332.28 ± 1.8 Å² | collision cross section [7]: 421.48 ± 3.9 Å²

GAEKTEVAEPR [_GAEK(Acetyl (K))TEVAEPR_]
collision cross section [3]: 370.22 ± 7.6 Å²

LEEVTGKLQVAR [_LEEVTGK(Succinyl)LQVAR_]
collision cross section [10]: 394.87 ± 0.77 Å²

LGPNDQYK [_LGPNDQY(Phospho (Y))K_]
collision cross section [24]: 336.82 ± 0.067 Å²

DHLSDKESK [_DHLSDK(Biotin)ESK_]
collision cross section [4]: 368.95 Å² | collision cross section [5]: 429.55 Å²

ANEKTESSSAQQVAVSR [_ANEK(Propionyl)TESSSAQQVAVSR_]
collision cross section [25]: 439.84 ± 1.6 Å² | collision cross section [26]: 533.7 Å²

AAINQKLIETGER [_AAINQK(Succinyl)LIETGER_]
collision cross section [10]: 409.41 ± 0.25 Å² | collision cross section [11]: 475.95 ± 0.68 Å²

VSPASSVDSNIPSSQGYKK [_VSPASSVDSNIPSSQGYK(Biotin)K_]
collision cross section [4]: 474.43 Å² | collision cross section [5]: 539.94 ± 1.6 Å²

EVVKPVPITSPAVSK [_EVVKPVPIT(HexNAc (ST))SPAVSK_]
collision cross section [14]: 445.83 ± 0.56 Å² | collision cross section [15]: 512.07 ± 2.8 Å²

SGGRGVSVSSAR [_SGGR(Citrullination (R))GVSVSSAR_]
collision cross section (charge state: 2, modification: Citrullination (R)): 351.18 ± 4.8 Å²

SPDEAYAIAKK [_SPDEAYAIAK(Propionyl)K_]
collision cross section [25]: 373.53 ± 0.94 Å² | collision cross section [26]: 448.43 ± 0.74 Å²

AAQASDLEKIHLDEK [_AAQASDLEK(Formyl)IHLDEK_]
collision cross section [27]: 452.43 ± 0.71 Å² | collision cross section [28]: 490.12 ± 2.1 Å²

SKLLFSNTAAQK [_SK(Succinyl)LLFSNTAAQK_]
collision cross section [10]: 398.22 ± 0.77 Å²

GTVPDDAVEALADSLGKK [_GTVPDDAVEALADSLGK(hydroxyisobutyryl)K_]
collision cross section [29]: 460.24 ± 0.81 Å² | collision cross section [30]: 537.74 ± 2.1 Å²

LQAAYAGDKADDIQK [_LQAAYAGDK(Crotonyl)ADDIQK_]
collision cross section [19]: 436.53 ± 0.29 Å² | collision cross section [20]: 487.02 ± 2.8 Å²

ISALQGKLSK [_ISALQGK(Biotin)LSK_]
collision cross section [4]: 376.95 ± 2.2 Å²

DVNAAIAAIKTK [_DVNAAIAAIK(Formyl)TK_]
collision cross section [27]: 377.34 ± 15 Å²

YEQEHAAIQDKLFQVAK [_YEQEHAAIQDK(Biotin)LFQVAK_]
collision cross section [5]: 538 ± 1.6 Å²

DYSAPVNFISAGLKK [_DYSAPVNFISAGLK(hydroxyisobutyryl)K_]
collision cross section [29]: 443.11 ± 0.56 Å² | collision cross section [30]: 536.52 ± 2.1 Å²

VGEFSGANKEK [_VGEFSGANK(Propionyl)EK_]
collision cross section [25]: 367.87 ± 0.33 Å²

VFIGNLNTLVVKKK [_VFIGNLNTLVVK(GlyGly (K))KK_]
collision cross section [18]: 502.69 ± 1.1 Å²

FLQEFYQDDELGKK [_FLQEFYQDDELGK(Dimethyl (K))K_]
collision cross section [8]: 456.43 ± 1.8 Å² | collision cross section [9]: 499.62 ± 0.75 Å²

LQLEIDQKK [_LQLEIDQK(Succinyl)K_]
collision cross section [10]: 370.18 ± 1.1 Å²

SSFAYKDQNENR [_SSFAYK(Propionyl)DQNENR_]
collision cross section [25]: 401.75 ± 0.65 Å² | collision cross section [26]: 462.04 Å²

VLDSGAPIKIPVGPETLGR [_VLDSGAPIK(Butyryl)IPVGPETLGR_]
collision cross section [1]: 472.51 ± 0.49 Å² | collision cross section [2]: 512.04 ± 1.8 Å²

GFCFITYTDEEPVKK [_GFCFITYTDEEPVK(Methyl (K))K_]
collision cross section [22]: 460.43 ± 0.33 Å² | collision cross section [23]: 513.09 ± 2.7 Å²

GEVQVSDKER [_GEVQVSDK(Propionyl)ER_]
collision cross section [25]: 360.54 ± 0.33 Å²

LEQVEKELLR [_LEQVEK(Succinyl)ELLR_]
collision cross section [10]: 384.25 ± 0.76 Å²

ITESVAETAQTIK [_ITESVAET(HexNAc (ST))AQTIK_]
collision cross section [14]: 422.03 ± 0.75 Å²

GGPGSTLSFVGKR [_GGPGSTLSFVGK(Formyl)R_]
collision cross section [27]: 378.65 ± 0.9 Å²

SKLLFSNTAAQK [_SK(Crotonyl)LLFSNTAAQK_]
collision cross section [19]: 402.06 ± 0.79 Å²

SPSDSGYSYETIGKTTK [_SPSDSGYSYETIGK(Formyl)TTK_]
collision cross section [27]: 446.06 ± 0.77 Å² | collision cross section [28]: 518.69 ± 1.8 Å²

SYISSQTNDTHK [_S(HexNAc (ST))YISSQTNDTHK_]
collision cross section [14]: 405.45 ± 0.67 Å²

SSFAYKDQNENR [_SSFAYK(Gluratylation)DQNENR_]
collision cross section [12]: 404.81 ± 0.5 Å² | collision cross section [13]: 472.81 ± 1.2 Å²

LQNSYQPTNK [_LQNSY(Phospho (Y))QPTNK_]
collision cross section [24]: 366.81 ± 0.064 Å²

IHVQSSSDSSDEPAEKR [_IHVQSSSDSSDEPAEK(Crotonyl)R_]
collision cross section [19]: 451.2 Å² | collision cross section [20]: 506.27 ± 1.7 Å²

GEKGNPGVGTQGPR [_GEKGNP(Hydroxyproline)GVGTQGPR_]
collision cross section [16]: 371.11 ± 0.55 Å² | collision cross section [21]: 431.33 ± 1.3 Å²

GEVQVSDKER [_GEVQVSDK(Malonyl)ER_]
collision cross section (charge state: 2, modification: Malonyl): 362.93 ± 1.2 Å²

VGTASVLQPVKK [_VGTASVLQPVK(Dimethyl (K))K_]
collision cross section [8]: 391.72 ± 3 Å² | collision cross section [9]: 440.56 ± 1.6 Å²

PRLPATGTFK [_PR(Methyl (R))LPATGTFK_]
collision cross section [6]: 353.59 ± 0.84 Å² | collision cross section [7]: 458.58 ± 3 Å²

LEENHYNTYISK [_LEENHYNTY(Phospho (Y))ISK_]
collision cross section [24]: 422.15 ± 0.06 Å² | collision cross section (charge state: 3, modification: Phospho (Y)): 477.33 ± 1 Å²

IVFSGNLFQHQEDSKK [_IVFSGNLFQHQEDSK(Methyl (K))K_]
collision cross section [22]: 490.37 Å² | collision cross section [23]: 529.21 ± 1.6 Å²

VGEFSGANKEK [_VGEFSGANK(Methyl (K))EK_]
collision cross section [22]: 374.84 ± 0.74 Å² | collision cross section [23]: 443.95 ± 6.6 Å²
